Here are results for one molecule from patent US8927207B2, “miRNAs as therapeutic targets in cancer” (Research Foundation of State University of New York, priority 2008, dated 2015).

The subject of one data set is TS. Description: western immunoblot of TS protein after transfection. The class given is cell-based. The settings on record: 48 hours after transfection. (In general: Immunoblotting shows a protein as a band on a membrane.)
The subject of a further data set is E2F3. Description: Western immunoblot of E2F3, HCT-116 (wt-p53). The class given is cell-based, human. The procedure: The expression of miR-192 on the expression of E2F3 and Rb in HCT-116 (wt-p53) cells was also analyzed. In these experiments, HVT-116 (wt-p53) cells, as described above (see Example 3) were transfected with non-specific miR (FIG. 7, lane 2), DHFR siRNA (FIG. 7, lane 3) or miR-192 (FIG. 7, lane 4) according to the procedure described above (see Examples 1 and 2). One HCT-116 (wt-p53) sample was not transfected, and used as a negative control (FIG. 7, lane 1). Western immunoblot analysis was performed according to the procedure described above (see Example 5), except that rabbit anti-E2F-3 polyclonal antibody (1:1000, C-18) (Santa Cruz Biotechnology) was used.

A further data set relates to HCT-116 (wt-p53) cells. Nature of the data set: cell cycle analysis by flow cytometry. The class given is cell-based, human. Further details: cell cycle profile G1/S / cell cycle profile G2/S: unit not given here. The procedure:
(§1) To determine whether the miR-192's impact on cellular proliferation was related to cell cycle control, the effect on cell cycle control was analyzed by flow cytometry using HCT-116 (wt-p53) (FIG. 5A) and HCT-116 (null-p53) (FIG. 5B) cells transfected with non-specific control miR (left line graph) or miR-192 (right line graph). This experiment was performed as follows. The HCT-116 (wt-p53) and HCT-116 (null-p53) cells lines as described above (see Example 3) were transfected with miR-192 precursor and the non-specific control miRNA described as above (see Examples 1 and 2). At 36 hours after transfection, the cells were harvested and resuspended at 0.5-1×10^5 cells/ml in modified Krishan buffer containing 0.1% sodium citrate and 0.3% NP-40 and kept at 4° C. Before being analyzed by flow cytometry, cells were treated with 0.02 mg/ml RNase H and stained with 0.05 mg/ml propidium iodide (Sigma).
miR-215 induces G2-arrest in HCT-116 (wt-p53) and U-2 OS cells. To investigate the mechanism by which miR-215 suppressed cell proliferation in HCT-116 (wt-p53) and U-2 OS cells, the impact of miR-215 on cell cycle control was analyzed by flow cytometry at 36 h after transfection. HCT-116 (wt-p53), HCT-116 (null-p53), U-2 OS and MG63 cells were transfected with miR-215 precursor and the non-specific control miRNA described as above. At 36 h after transfection, cells were harvested and resuspended at 0.5-1 10^5 cells/ml in modified Krishan buffer containing 0.1% sodium citrate and 0.3% NP-40 and kept at 4° C. Before analysis by flow cytometry, cells were treated with 0.02 mg/ml RNase H and stained with 0.05 mg/ml propidium iodide (Sigma).
A general note: A flow cytometer gives signals particle by particle.

The next data set concerns DHFR protein. Nature of the data set: Western immunoblot of DHFR protein after transfection. It is filed as cell-based, human. The settings on record: HCT-116 (wt-p53). The procedure: In this experiment, human colon cancer cell lines, HCT-116 (wt-p53), cells were transfected with miR-192 or miR-24. The cells were maintained in McCoy's 5A medium (Life Technologies). The media was supplemented with 10% dialyzed fetal bovine serum (Hyclone Laboratories). The cell line were grown at 37° C. in a humidified incubator with 5% CO2.
The HCT-116 (wt-p53) cells tranfected as follows. The cells (2×10^5) were plated in 6-well plates and transfected with 100 nmol/L of either miR-192 or miR-24 precursors or nonspecific control miR (Ambion) after 24 h with Oligofectamine (Invitrogen) according to the manufacturer's instructions.
At 48 hours after transfection with miR-192 or miR-24 precursors or nonspecific control miRNA, the cells were scraped and lysed in radioimmunoprecipitation assay buffer (Sigma). […] Horseradish peroxidase-conjugated antibodies against mouse or rabbit (1:1,000; Santa Cruz Biotechnology) were used as the secondary antibodies.

Another data set concerns HCT-116 (null-p53) cells. Nature of the data set: cell cycle analysis by flow cytometry. It is filed as cell-based, human. The procedure: as §1
A further data set has as its system DHFR mRNA. Description: real time qRT-PCR of DHFR mRNA after transfection. The class given is cell-based, human. The settings on record: HCT-116 (wt-p53), 24 h after transfection, GAPDH normalized. The procedure: The analysis was performed as follows. Total RNA, including miRNA, was isolated from cell lines by using TRIzol reagent (Invitrogen) according to the manufacturer's instructions at 24 h after transfection. cDNA was synthesized with the High Capacity cDNA synthesis kit (Applied Biosystems) using 2 μg of total RNA as the template and random primers. Real-time qRT-PCR analysis was done on the experimental mRNAs. The PCR primers and probes for DHFR, and the internal control gene GAPDH were purchased from Applied Biosystems. qRT-PCR was done on an ABI 7500HT instrument under the following conditions: 50° C., 2 min of reverse transcription; 95° C., 10 min; 95° C., 15 sec; 60° C., 1 min. The reaction was done for up to 40 cycles (n=3). GAPDH was used as an internal standard for normalization.
A general note: Quantitative PCR measures a nucleic acid by following its amplification.

The next data set relates to p53. Nature of the data set: western immunoblot of p53 in HCT-116 (wt-p53) and U-2 OS cells. The conditions noted are these: both HCT-116 (wt-p53) and U-2 OS cells, 48 h after transfection. The class given is cell-based. From the text:
miR-215 increases the expression of cell cycle control genes p53 and p21. p53 and p21, a downstream target of the p53 pathway of growth control, are reported to block cells at G2 checkpoint mainly through inhibiting activity of Cdc2, the cyclin-dependent kinase that normally drives cells into mitosis, which is the ultimate target of pathways that mediate rapid arrest in G2 in response to DNA damage. To further analyze the mechanism of cell proliferation inhibition by miR-215, we transfected miR-215 precursor into HCT-116 (wt-p53) and U-2 OS cells, and evaluated the levels of cell cycle control genes p53 and p21 by western immunoblot analysis.

Setting [1] is: HCT-116 (null), 36 hours after transfection.

Bounds are passed on as bounds.

Method for TS: At 48 h after transfection with miR-215, miR-192 precursors or non-specific control miRNA, the cells were scraped and lysed in RIPA buffer (Sigma). Equal amounts of proteins were resolved by SDS-PAGE on 12% gels by the method of Laemmli, and transferred to polyvinylidene fluoride membranes (BIO-RAD Laboratories). The membranes were then blocked by 5% nonfat milk in TBS-T (Tris-buffered saline and 0.5% Tween-20) at room temperature for 1 h. The primary antibodies used for the analysis included mouse anti-TS mAb (1:400, Millipore), mouse anti-DHFR mAb (1:250, BD Bioscience), mouse anti-p53 mAb (1:1000, DO-1), mouse anti-p21 mAb (1:1000, F-5), and mouse anti-α-tubulin mAb (1:1000, TU-02) purchased from Santa Cruz Biotechnology. Horseradish peroxidase—conjugated antibodies against mouse (1:1000, Santa Cruz Biotechnology) were used as the secondary antibodies. Protein bands were visualized with a chemiluminescence detection system using the Super Signal substrate (BIO-RAD).
At 48 hours after transfection, proteins were extracted from miR-215-transfected cells and from control cells and changes in TS or DHFR protein levels were determined by western immunoblot analysis (FIG. 14).

B1: miR-192: microRNA miR-192 (SEQ ID NO:1), transfected into cells as miR-192 precursor (Ambion) (nucleic acid)
chain: GCCGAGACCGAGUGCACAGGGCUCUGACCUAUGAAUUGACAGCCAGUGCUCUCGUCUCCCCUCUGGCUGCCAAUUCCAUAGGUCACAGGUAUGUUCGCCUCAAUGCCAGC
modifications: delivered as precursor, further chemistry not given here
With B1, in the data set on TS, the TS protein levels entry is reported as “clearly decreases”. Besides, the “expression of E2F3” value with E2F3 is recorded as “decreased expression”. Besides, in the data set on HCT-116 (wt-p53) cells (36 hours after transfection), the “cell cycle profile G1” value is given as 40.84%, the “cell cycle profile G1/S” value came out at 2.83, the “cell cycle profile G2” value is 44.71% and the “cell cycle profile G2/S” value stood at 3.09. For the same molecule, the “cell cycle profile S” value in the data set on HCT-116 (wt-p53) cells (36 hours after transfection) is on record as 14.45%. In the data set on HCT-116 (wt-p53) cells (vs non-specific miR), the G1 arrest is more than 2 fold and the G2 arrest is more than 3 fold. In the data set on DHFR protein (100 nmol/L precursor, 48 hours after transfection), the “expression of DHFR protein” value is listed as “clearly decreased”. Further, in the data set with DHFR protein (compared with positive control miR-24), the “potency for decreasing DHFR expression” value is listed as “comparable to miR-24”. In the data set with HCT-116 (null-p53) cells (setting [1]), the “cell cycle profile G1” value is recorded as 35.65%, the “cell cycle profile G1/S” value is given as 0.79 ratio (unitless), the “cell cycle profile G2” value worked out at 19.06% and the “cell cycle profile G2/S” value is recorded as 0.42 ratio (unitless). For the same molecule, the “cell cycle profile S” value in the data set with HCT-116 (null-p53) cells (setting [1]) was determined as 45.29%. Also, the “G1 and G2 arrest” value in the data set with HCT-116 (null-p53) cells (HCT-116 (null-p53)) is listed as “has not been observed”. In addition, the “DHFR mRNA expression” value with DHFR mRNA is “no reduction”. In addition, the p53 protein level result in the data set with p53 is “significant increase”.
